For test [1], the target named is Wild type sACE2_(2)-IgG1 (human) (UniProt Q9BYF1). The test can be described thus: BLI.
Test [2] addresses sACE2_(2).v2.4-IgG1 (human) (UniProt Q9BYF1). The test can be described thus: BLI. Background: In BLI a coated tip is dipped into the sample, and binding shifts an interference pattern.

The source of these data is paper PMC7781310.

In test [1], LYRa11 RBD-8h (domain or fragment) returned a Kd of 91 nM and a koff of 0.079 s⁻¹. Further, in test [2], the Kd was determined as 1.8 nM and the koff came out at 0.0025 s⁻¹.

On to Rs4084 RBD-8h (domain or fragment), for which the Kd in test [1] was determined as 85 nM; in test [2], 3.1 nM. For the same substance, the koff in test [1] was 0.025 s⁻¹; in test [2] it was 0.0015 s⁻¹.

Take Rs4231 RBD-8h (domain or fragment): in test [1], the Kd amounted to 69 nM and the koff came to 0.022 s⁻¹. In test [2], the Kd is 3.5 nM and the koff amounted to 0.0016 s⁻¹.

With Rs7327 RBD-8h (domain or fragment), the Kd stood at 63 nM in test [1] and 1.9 nM in test [2]. Also, the koff in test [1] came out at 0.04 s⁻¹; in test [2] it was 0.0018 s⁻¹.

In test [2], RsSHC014 RBD-8h (domain or fragment) had a koff of 0.002 s⁻¹.

As usually defined, the Kd is the equilibrium constant for the complex coming apart. The koff is a measure of how fast the partners let go of each other.
